The source of these data is patent US20250090644A1.

What all share (assay): cell-based or functional assay
In experiment [1] the target is E. coli expressed recombinant human microplasmin Arg582Ala (human) (UniProt P00747).
In experiment [2] the target is E. coli expressed recombinant human microplasmin Arg610Ala (human) (UniProt P00747).
For experiment [3], the target named is E. coli expressed recombinant human microplasmin Glu641Ala (human) (UniProt P00747).
Experiment [4] concerns the target E. coli expressed recombinant human microplasmin Gly739Ala (human) (UniProt P00747).
Experiment [5] has as its target E. coli expressed recombinant human microplasmin K642A (Table 3) (human) (UniProt P00747).
Experiment [6] deals with E. coli expressed recombinant human microplasmin Lys607Ala (human) (UniProt P00747).
The target in experiment [7] is E. coli expressed recombinant human microplasmin Met585Ala (human) (UniProt P00747).
Experiment [8] deals with E. coli expressed recombinant human microplasmin Phe587Ala (human) (UniProt P00747).
The target of experiment [9] is E. coli expressed recombinant human microplasmin Pro642Ala (human) (UniProt P00747).
For experiment [10], the target named is E. coli expressed recombinant human microplasmin Ser608Ala (human) (UniProt P00747).
For experiment [11], the target named is E. coli expressed recombinant human microplasmin, wild type (human) (UniProt P00747).

B1: α2-antiplasmin (protein, UniProt P08697 40-491, looked up)
chain: NQEQVSPLTLLKLGNQEPGGQTALKSPPGVCSRDPTPEQTHRLARAMMAFTADLFSLVAQTSTCPNLILSPLSVALALSHLALGAQNHTLQRLQQVLHAGSGPCLPHLLSRLCQDLGPGAFRLAARMYLQKGFPIKEDFLEQSEQLFGAKPVSLTGKQEDDLANINQWVKEATEGKIQEFLSGLPEDTVLLLLNAIHFQGFWRNKFDPSLTQRDSFHLDEQFTVPVEMMQARTYPLRWFLLEQPEIQVAHFPFKNNMSFVVLVPTHFEWNVSQVLANLSWDTLHPPLVWERPTKVRLPKLYLKHQMDLVATLSQLGLQELFQAPDLRGISEQSLVVSGVQHQSTLELSEVGVEAAAATSIAMSRMSLSSFSVNRPFLFFIFEDTTGLPLFVGSVRNPNPSAPRELKEQQDSPGNKDFLQSLKGFPRGDKLFGPDLKLVPPMEEDYPQFGSPK
On to B1, for which the IC50 (relative to the µPlm WT enzyme) (fold relative to WT) turned out to be 1.6 in [1]; 1.7 in [2]; 1.6 in [3]; 1 in [5]; 1 in experiment [6]; 1.2 in experiment [7]. For the same molecule, the values for the IC50 (relative to the µPlm WT enzyme) (fold relative to WT) in [8], in [10] and in experiment [11] were 3.9, 1.2 and 1, respectively. The α2-AP inhibition of µPlm activity in [4] is greater than 400 nM. For the same molecule, in [8], the activity remaining in the presence of α2-AP (% activity remaining) is 50. Further, in experiment [9], the IC50 of α2-AP inhibition (fold of WT) (fold relative to WT) is 2.
